# According to the supplement of paper PMC12764529:
# ± gives the half width of the 95% confidence interval.
# Experiments:
# [1] = folding stability dG unfold from trypsin proteolysis; higher = more stable
# Method in brief: (§1)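 Unfolding free energy was derived, per protease or combined, against a sequence-predicted unfolded-state K50 and a shared folded-state K50, starting from K50 inferred by Bayesian fitting of sequencing counts. Digestion with trypsin and chymotrypsin was carried out on designed mini-proteins under 80 residues without cysteine in a PA-tagged cDNA display construct. Only designs with AlphaFold2 dimer inter-PAE above 15 were kept.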
# [2] = folding stability dG unfold from chymotrypsin proteolysis; higher = more stable
# Method in brief: as §1
# [3] = folding stability dG unfold (combined trypsin and chymotrypsin); higher = more stable
# Method in brief: as §1
Sequence,folding stability dG unfold [1],folding stability dG unfold [2],folding stability dG unfold [3]
SAGGIEVDPEHKHVHIHIPNGNIPELLDLIEDAPGDHVSIHFYNPGNGKPRRFTMPRKEARKFLEQFSAGGS [r16_797_TrROS],4.72 ± 0.138 kJ/mol,3.49 ± 0.36 kJ/mol,4.36 ± 0.184 kJ/mol
SAGGIIEIDPNGWVIRIEMYPPDGKPPKHTIPFPNATPEELIDELKDWADQLPNPGHKVKIDEITPMPSAGG [r13_29_TrROS],0.217 ± 0.297 kJ/mol,1.56 ± 0.711 kJ/mol,0.739 ± 0.36 kJ/mol
SAGGILDLAAERNAVSVEVLEVNPEPPTVTVRLTYRNAAGEPRTATFTVELPPPAPPVPLVLPGEATFSAGG [r13_608_TrMRF],3.08 ± 0.247 kJ/mol,10.3 ± 0.46 kJ/mol,7.75 ± 0.372 kJ/mol
SAGGIRIRDEDGKPRAEYTIYHPDHGMPIEINVYRNKDGNPYIQVEMTGPNGRPKKFTMPADDLNDLSAGGS [r8_24_TrROS],-3.61 ± 2.18 kJ/mol,2.34 ± 0.544 kJ/mol,1.11 ± 0.343 kJ/mol
SAGGIRIRFWVPSPEEAREMAETIAKWLMEEHPGAKIKIEPKKVEPNPDNGYYRVEVPIKIVLPGQPISAGG [r13_585_TrROS],5.7 ± 0.213 kJ/mol,7.91 ± 0.238 kJ/mol,7.1 ± 0.176 kJ/mol
SAGGITIELRNPNGEPVEVHLKRDPDGTLELSVHMRGPEGRHYMVTMTIKVKNNGIEIDKFDNWYPLPSAGG [r13_451_TrROS],13 ± 0.385 kJ/mol,17.4 ± 0.351 kJ/mol,15.9 ± 0.46 kJ/mol
SAGGITINEDGTITIEVNGKTYTIKLPPGAEITKIEVLEDGTIKITLRINGKTVTLELKVYKEGEEPSAGGS [r16_635_TrROS_Hall],19.1 ± 1.76 kJ/mol,27.4 ± 2.85 kJ/mol,> 25.1 kJ/mol
SAGGKATVTITEVKVETETVTLKYDPETGELVEKTETVTRVEVKTITIEADKNPELAEELLKKLGIESAGGS [r16_467_TrROS_Hall],7.06 ± 0.46 kJ/mol,12.3 ± 1.05 kJ/mol,10.7 ± 1.17 kJ/mol
SAGGKEVKIEIEEKDGKLVIKITVKTEEELKEEIKKLLEEEFGLEVEEVKVEKNKNGEVTIYVVIKKKSAGG [r13_158_TrROS_Hall],6.07 ± 0.711 kJ/mol,11 ± 0.837 kJ/mol,10.5 ± 1.84 kJ/mol
SAGGKEVLTVTVEVEIDGVLIRVEAEVTLDEDGNLTVTITRIEIRPLPPPKIDLRDLTDEQRKELGIESAGG [r13_964_TrROS_Hall],8.52 ± 0.402 kJ/mol,8.46 ± 0.36 kJ/mol,8.06 ± 0.544 kJ/mol
SAGGKEYRNPENGQKIPPGDTEEEREKHAREHAKPVIVPIEIPIVIKFGDVIFPIPITFEIPLTPGGSAGGS [r16_387_TrROS],0.171 ± 0.226 kJ/mol,-0.137 ± 1.17 kJ/mol,0.243 ± 1.34 kJ/mol
SAGGKFDIMVKVEPPDGKEEELPIKFDSPEEIIEEARAIAEQHGPGDKLKVEIYYPGTGRPIEFEIPSAGGS [r8_107_TrROS],3.34 ± 0.18 kJ/mol,-0.712 ± 0.753 kJ/mol,1.41 ± 1.42 kJ/mol
SAGGKFKIVKIEVEEKTVKVKNKDGKIEKKKVKVIKVKIYKDGKLIKEVTFKSKEDMLNALKELLKKSAGGS [r8_21_TrROS_Hall],12.8 ± 0.46 kJ/mol,18.9 ± 0.962 kJ/mol,18.2 ± 1.26 kJ/mol
SAGGKGPKKIILPLKFKIKTKPNEKKSKIKFKLSLKLFPKAKKVEVKSSIKPLKNNYALLDFDIVIEASAGG [r13_872_TrMRF],14.8 ± 0.962 kJ/mol,15.1 ± 0.544 kJ/mol,14.9 ± 1.88 kJ/mol
SAGGKIEELAKELAKKLNIEKVEVEEKDGKLVVKLVVKDKKTNKYYRITIEVDDDGNIKISIEPLPPSAGGS [r16_433_TrROS_Hall],16.4 ± 0.837 kJ/mol,21.6 ± 0.502 kJ/mol,21.4 ± 0.837 kJ/mol
SAGGKIKIKINGKTYTVEDAEIIEVKKNKNGKKEIIIKIKVNGKTYEIVISEEDLKKIKPGDTITLKSAGGS [r16_638_TrROS_Hall],10 ± 0.222 kJ/mol,13.3 ± 0.188 kJ/mol,12.4 ± 0.247 kJ/mol
SAGGKIKIVLSAEELEKKFGKSIEELAAELAKKLFPNKKVKVKKVKIEKDENGKEKLYVEVEIEPEKPSAGG [r13_723_TrROS_Hall],12.2 ± 0.628 kJ/mol,13.4 ± 0.305 kJ/mol,13 ± 0.711 kJ/mol
SAGGKITIEIEEEDGYLVIRIREEKEVYDEETGELKKEEKEITIVLPLEEAKKLAEELNLEIEIVEPSAGGS [r8_337_TrROS_Hall],8.74 ± 0.331 kJ/mol,10.4 ± 0.669 kJ/mol,10.1 ± 0.962 kJ/mol

Sequence,folding stability dG unfold [1],folding stability dG unfold [2],folding stability dG unfold [3]
SAGGKIWIPMDFLKEIAEEGNIKEIEVNPDDGDMYTIKFPNLADKFGEPVTISIRRPPGGNPWIEIEPSAGG [r13_163_TrROS],0.447 ± 0.418 kJ/mol,4.51 ± 0.711 kJ/mol,3 ± 0.628 kJ/mol
SAGGKKIEIEIVFKEGEKAPSAEEIAKKLLEEIPNIKITSIEIVDVEYDEETGEKYVVVKITIEVEPPSAGG [r13_10_TrROS_Hall],12.4 ± 0.753 kJ/mol,13.1 ± 0.586 kJ/mol,13.3 ± 1.17 kJ/mol
SAGGKKIKAKVIEIKKIGDKVLVTIERPDGSPDEVLIDKKEVAEKITPESEVEIEVFPDGSVKIKVGSAGGS [r16_2_TrMRF],8.2 ± 0.364 kJ/mol,8.49 ± 0.544 kJ/mol,8.98 ± 0.795 kJ/mol
SAGGKKIKITVKELKKKLEEEGYEIEEIEIYNKKTGKKIKTIKEGDVIELPENVKNVVIKVKIKKKKSAGGS [r8_243_TrROS_Hall],9.04 ± 0.795 kJ/mol,12 ± 0.711 kJ/mol,10.8 ± 1.42 kJ/mol
SAGGKKIRIVMTEEEIKKLAEALAKELNVEVKIVKVEKKTVFDKNGKPVKTYVVVEIEVKKLPPGVKLSAGG [r13_943_TrROS_Hall],5.43 ± 0.414 kJ/mol,6.53 ± 0.234 kJ/mol,6.56 ± 0.669 kJ/mol
SAGGKKKKKVKIKIEIAIVIPEEDLSEEERKKLAEELAERLKRELAEKLGLSEDEIEEIEVTVYRLPPSAGG [r13_5_TrROS_Hall],7 ± 0.385 kJ/mol,9.75 ± 0.28 kJ/mol,8.53 ± 0.879 kJ/mol
SAGGKKKKPKKKIKIKIVKVEKKYDKKTGKLKEVRIEIEIEAESEEEAKKLAEELAKKLNIEVEVKKKSAGG [r13_606_TrROS_Hall],5.34 ± 0.46 kJ/mol,10.2 ± 0.402 kJ/mol,8.42 ± 1.34 kJ/mol
SAGGKKKKTIVIVLEVSEEEAEKIIEALKKELEKKGFKIEKIEVRKVPDKPMVIVTIKLENGEELTFISAGG [r13_421_TrROS_Hall],8.23 ± 0.218 kJ/mol,11.1 ± 0.23 kJ/mol,10.2 ± 0.305 kJ/mol
SAGGKKKKVITVEVPPEATAEELLAALKKADKVFIRTKDGKVREIKVGEKVSPEELKVKPGDTVEIYVSAGG [r13_399_TrROS_Hall],4.67 ± 0.502 kJ/mol,7.29 ± 0.402 kJ/mol,6.4 ± 1 kJ/mol
SAGGKKKKVKVKVVKVEKLENGTYKVVLEVEVDGKKITLVKEFKTKEDLEKKPKEIEITVEELKKLLKSAGG [r13_540_TrROS_Hall],10.3 ± 0.544 kJ/mol,18.1 ± 0.92 kJ/mol,16.2 ± 1.55 kJ/mol
SAGGKKKVFLLENGELVVFDPETGKLEPVKLPEIPLTVEVEFEEGEGKIRVTVTNPAGLKLEFEFDFSAGGS [r16_453_TrMRF],9.23 ± 0.502 kJ/mol,15.5 ± 0.418 kJ/mol,13.3 ± 0.628 kJ/mol
SAGGKKKVTIEIRKNPEEPGKYIIRVKVDGKEIEIEVSEEDLEEILAALKKLLPPGAKIEKIEIRELPSAGG [r13_519_TrROS_Hall],9.97 ± 0.41 kJ/mol,16.1 ± 0.339 kJ/mol,14.4 ± 0.502 kJ/mol
SAGGKKKYRIKITYKDEGKLYEVPEDVKATVDPNNVVYIEVDSKEAVDELVKAIAPKDGLEVEVEPGSAGGS [r8_131_TrMRF],2.17 ± 0.184 kJ/mol,4.93 ± 0.364 kJ/mol,3.83 ± 0.389 kJ/mol
SAGGKKLLIKVRIEVFNENGELVREEEIEIEVEGMSEEELEELARELLAKLPPENVKIEVEIVELEESAGGS [r16_774_TrROS_Hall],18.1 ± 3.93 kJ/mol,18 ± 1.55 kJ/mol,17.4 ± 1.46 kJ/mol
SAGGKKPKIEVKIEFDEETGKLRIEIRTEDGKLIAEKEIEIDGVLFKVKVIVKDGKLVIEIEAFPKKSAGGS [r16_631_TrROS_Hall],11.7 ± 0.628 kJ/mol,16.7 ± 0.502 kJ/mol,15.3 ± 1.05 kJ/mol
SAGGKKPKKLTPEQIEELAKALAPEGAEVKVEVVEVTEKTVVVKITVKDKETGEEKTIEITLPLPEESAGGS [r16_486_TrROS_Hall],10.3 ± 0.753 kJ/mol,7.23 ± 0.586 kJ/mol,9.38 ± 0.92 kJ/mol
SAGGKKPKVKKVKVKLTLVDPETGEEVEVEAELYELPDGYVVLTVRNKKTGKTYRFVFKDGKLYLEPVSAGG [r13_117_TrROS_Hall],12.1 ± 0.418 kJ/mol,18.7 ± 0.46 kJ/mol,17.2 ± 1.46 kJ/mol
